Data reported in patent US20070196376A1 (AstraZeneca / MedImmune, published 2007).
Residue numbers refer to the chain shown, from its start. Values belong to the binder of their own block, whether it stands above or below them.

Experiments:
[1] = target: T1, human insulin-like growth factor-I (IGF-I) (human, UniProt P05019 49-118); assay: cell-based or functional assay
[2] = target: T2, human insulin-like growth factor-II (IGF-II) (human, UniProt P01344 25-91); assay: cell-based or functional assay
[3] = target: T1, human insulin-like growth factor-I …; assay: cell-based or functional assay; remark: listed apart in the source
[4] = target: T2, human insulin-like growth factor-II …; assay: cell-based or functional assay; remark: listed apart in the source
[5] = target: T1, human insulin-like growth factor-I …; assay: cell-based or functional assay; remark: listed apart in the source
[6] = target: T2, human insulin-like growth factor-II …; assay: cell-based or functional assay; remark: listed apart in the source
[7] = target: T2, human insulin-like growth factor-II …; assay: cell-based or functional assay; remark: listed apart in the source
mouse IGF-I = mouse IGF-I (mouse, UniProt P05017 49-118); assay: cell-based or functional assay
mouse IGF-II = mouse IGF-II (mouse, UniProt P09535 25-91); assay: cell-based or functional assay
[8] = target: T1, human insulin-like growth factor-I …; assay: Biacore low-resolution analysis, IGF-I
[9] = target: T2, human insulin-like growth factor-II …; assay: Biacore low-resolution analysis, IGF-II
[10] = target: T1, human insulin-like growth factor-I …; assay: Biacore low-resolution screen, mAb captured, IGF-I injected
[11] = target: T2, human insulin-like growth factor-II …; assay: Biacore low-resolution screen, mAb captured, IGF-II injected
[12] = target: T1, human insulin-like growth factor-I …; assay: Biacore high-resolution, mAb captured, IGF-I injected over a range of concentrations
[13] = target: T2, human insulin-like growth factor-II …; assay: Biacore high-resolution, mAb captured, IGF-II injected over a range of concentrations
[14] = target: T3, Recombinant human IGF-I (insulin-like growth factor-I) (human, UniProt P05019 49-118); assay: limited antigen ELISA, supernatant 1:25
T3 construct: Bought; also called IGF1; IGF-1

[15] = target: T4, Recombinant human IGF-II (insulin-like growth factor-II) (human, UniProt P01344 25-91); assay: limited antigen ELISA, supernatant 1:25
T4 construct: Bought; also called IGF2; IGF-2

human insulin = target: T5, human insulin (human, UniProt P01308 25-54; P01308 90-110, limits assumed); assay: Biacore, mAb on CM5 chip, insulin injected
T5 construct: The mature hormone has an A and a B chain cut from the precursor; also called recombinant insulin; hu-Insulin

B1: mAb 7.234.2 (antibody, V domains shown)
VH: QLQLQESGPGLVKPSETLSLTCTVSGGSINSSSNYWGWIRQPPGKGLAWIGGIYYSGSTYYNPSLRSRVTMSVDTSKNQFSLKLSSVTAADTAVYYCARQRGHSSGWWYFDLWGRGTLVTVSS
VL: DIQMTQSPSSVSASVGDRVTITCRASRGISSWLAWYQQRPGKAPKLLIYTASSLQSGVPSRFSGSGSGTDFTLTISSLQPEDFATYYCQQANSFPFTFGPGTKVDIKR
notes: Kappa light chain (L5/JK3); also called 7.234.1; 7_234_1
% MAX Activation, mean (n = 2), IGF-I pTYR of hIGF-IR in NIH3T3 cells [1]: 21.1%
EC50 (nM), mean (n = 2), IGF-I pTYR of hIGF-IR in NIH3T3 cells [1]: 24.3 nM
% MAX Activation, mean (n = 2), IGF-II pTYR of hIGF-IR in NIH3T3 cells [2]: 21.1%
EC50 (nM), mean (n = 2), IGF-II pTYR of hIGF-IR in NIH3T3 cells [2]: 7.7 nM
% Inhibition, mean (n = 3), IGF-I Proliferation Assay, NIH3T3/hIGF-IR cells [3]: 67.3%
EC50 (nM), mean (n = 3), IGF-I Proliferation Assay, NIH3T3/hIGF-IR cells [3]: 40.6 nM
% Inhibition, mean (n = 2), IGF-II Proliferation Assay, NIH3T3/hIGF-IR cells [4]: 62.1%
EC50 (nM), mean (n = 2), IGF-II Proliferation Assay, NIH3T3/hIGF-IR cells [4]: 24.3 nM
EC50 (nM), n = 1, IGF-I pTYR, BxPC3 cells [5]: 5.1 nM
EC50 (nM), n = 2, IGF-I pTYR, BxPC3 cells [5]: 2.9 nM
Max % Inhibition (333.3 nM), n = 1, IGF-I pTYR, BxPC3 cells [5]: 97.3%
Max % Inhibition (333.3 nM), n = 2, IGF-I pTYR, BxPC3 cells [5]: 91.5%
EC50 (nM), n = 1, IGF-II pTYR, BxPC3 cells [6]: 1.9 nM
EC50 (nM), n = 2, IGF-II pTYR, BxPC3 cells [6]: 2.3 nM
Max % Inhibition (133.3 nM), n = 2, IGF-II pTYR, BxPC3 cells [6]: 77.3%
Max % Inhibition (333.3 nM), n = 1, IGF-II pTYR, BxPC3 cells [6]: 98.5%
EC50 (nM), n = 2, IGF-II Proliferation, BxPC3 cells [7]: 2.6 nM
Max % Inhibition (133.3 nM), n = 2, IGF-II Proliferation, BxPC3 cells [7]: 201%
Max % Inhibition (333.3 nM), n = 1, IGF-II Proliferation, BxPC3 cells [7]: 112%
Mouse IGF-I EC50 (nM), n = 1, phosphorylation of hIGF-IR in NIH3T3 cells (mouse IGF-I): 46 nM
Mouse IGF-II EC50 (nM), n = 1, phosphorylation of hIGF-IR in NIH3T3 cells (mouse IGF-II): 36.1 nM
Kd [8]: 0.328 nM
Kd [9]: 0.0453 nM
Kd [10]: 0.328 nM
koff [10]: 0.0022 s⁻¹
kon [10]: 6.7e+06 M⁻¹ s⁻¹
Kd [11]: 0.0453 nM
koff [11]: 0.00029 s⁻¹
kon [11]: 6.4e+06 M⁻¹ s⁻¹
Kd [12]: 3.76 nM
Kd [13]: 0.295 nM

B2: mAb 7.158.2 (antibody, V domains shown)
VH: B1 VH with N30R, N34Y, A48E, R66K
VL: B1 VL with R18S, R27Q, W32Y, R39K, T50A, S65N, S93N
notes: also called 7.158.1; 7_158_1
LA OD, IGF1 2 ng/ml [14]: 1.71 OD 450 nm
LA OD, IGF1 4 ng/ml [14]: 3 OD 450 nm
LA OD, IGF2 2 ng/ml [15]: 1.42 OD 450 nm
LA OD, IGF2 4 ng/ml [15]: 2.46 OD 450 nm

More lines, now with the values ahead:

binding result (human insulin): no binding (tested: 502 nM)
LA OD, IGF1 2 ng/ml [14]: 0.7 OD 450 nm
LA OD, IGF1 4 ng/ml [14]: 1.79 OD 450 nm
LA OD, IGF2 2 ng/ml [15]: 1.4 OD 450 nm
LA OD, IGF2 4 ng/ml [15]: 2.44 OD 450 nm
B3: mAb 7.234.2 (antibody, V domains shown)
VH: B1 VH
VL: B1 VL
notes: also called 7.234.1; 7_234_1

% MAX Activation, mean (n = 2), IGF-I pTYR of hIGF-IR in NIH3T3 cells [1]: 22.7%
EC50 (nM), mean (n = 2), IGF-I pTYR of hIGF-IR in NIH3T3 cells [1]: 28.3 nM
% MAX Activation, mean (n = 2), IGF-II pTYR of hIGF-IR in NIH3T3 cells [2]: 33.7%
EC50 (nM), mean (n = 2), IGF-II pTYR of hIGF-IR in NIH3T3 cells [2]: 11.3 nM
% Inhibition, mean (n = 3), IGF-I Proliferation Assay, NIH3T3/hIGF-IR cells [3]: 57.4%
EC50 (nM), mean (n = 3), IGF-I Proliferation Assay, NIH3T3/hIGF-IR cells [3]: 42.8 nM
% Inhibition, mean (n = 2), IGF-II Proliferation Assay, NIH3T3/hIGF-IR cells [4]: 54.6%
EC50 (nM), mean (n = 2), IGF-II Proliferation Assay, NIH3T3/hIGF-IR cells [4]: 36 nM
EC50 (nM), n = 1, IGF-I pTYR, BxPC3 cells [5]: 4.5 nM
EC50 (nM), n = 2, IGF-I pTYR, BxPC3 cells [5]: 3.6 nM
Max % Inhibition (333.3 nM), n = 1, IGF-I pTYR, BxPC3 cells [5]: 92.9%
Max % Inhibition (333.3 nM), n = 2, IGF-I pTYR, BxPC3 cells [5]: 89.4%
EC50 (nM), n = 2, IGF-II pTYR, BxPC3 cells [6]: 4.2 nM
Max % Inhibition (133.3 nM), n = 2, IGF-II pTYR, BxPC3 cells [6]: 74%
Max % Inhibition (333.3 nM), n = 1, IGF-II pTYR, BxPC3 cells [6]: 92.4%
EC50 (nM), n = 1, IGF-II Proliferation, BxPC3 cells [7]: 0.0013 nM
Max % Inhibition (133.3 nM), n = 2, IGF-II Proliferation, BxPC3 cells [7]: 148%
Max % Inhibition (333.3 nM), n = 1, IGF-II Proliferation, BxPC3 cells [7]: 86.3%
Kd [10]: 0.5 nM
koff [10]: 0.0022 s⁻¹
kon [10]: 4.4e+06 M⁻¹ s⁻¹
Kd [11]: 0.197 nM
koff [11]: 0.00067 s⁻¹
kon [11]: 3.4e+06 M⁻¹ s⁻¹
B4: mAb 7.158.2 (antibody, V domains shown)
VH: B1 VH with N30R, N34Y, A48E, R66K
VL: B1 VL with R18S, R27Q, W32Y, R39K, T50A, S65N, S93N
notes: Kappa light chain (L5/JK3); also called 7.158.1; 7_158_1
